Bridge positions count the residues as written; N and C are the ends. Ends that are not written are not given here.

Assay in all cases: phage-binding assay
Assay [1] concerns the target HSP27, human recombinant protein (human, UniProt P04792 1-205).
The target of assay [2] is T1, annexin A1 (human, UniProt P04083 1-346).
T1 sequence (looked up): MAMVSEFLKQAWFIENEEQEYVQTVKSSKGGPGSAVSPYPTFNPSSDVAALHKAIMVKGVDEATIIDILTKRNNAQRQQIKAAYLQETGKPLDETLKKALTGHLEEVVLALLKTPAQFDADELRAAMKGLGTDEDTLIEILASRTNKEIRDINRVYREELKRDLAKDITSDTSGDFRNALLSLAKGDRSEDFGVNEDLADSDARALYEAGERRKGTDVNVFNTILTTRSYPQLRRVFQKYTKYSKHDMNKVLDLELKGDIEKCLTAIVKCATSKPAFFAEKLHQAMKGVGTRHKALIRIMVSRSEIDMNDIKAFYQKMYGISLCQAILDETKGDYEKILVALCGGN

Assay [3] deals with T2, fructose-bisphosphate aldolase A (human, UniProt P04075 1-364).
T2 sequence (looked up): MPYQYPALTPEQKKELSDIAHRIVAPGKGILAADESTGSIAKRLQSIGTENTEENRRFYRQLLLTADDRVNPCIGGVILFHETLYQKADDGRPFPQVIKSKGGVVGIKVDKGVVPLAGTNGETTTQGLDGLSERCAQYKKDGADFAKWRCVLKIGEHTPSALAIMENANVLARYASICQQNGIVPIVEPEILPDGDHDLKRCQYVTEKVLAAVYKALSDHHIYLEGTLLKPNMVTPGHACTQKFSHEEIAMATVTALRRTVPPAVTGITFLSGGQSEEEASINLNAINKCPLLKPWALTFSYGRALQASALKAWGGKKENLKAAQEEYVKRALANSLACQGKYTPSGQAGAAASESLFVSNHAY

Assay [4] deals with BAG family molecular chaperone regulator 3 (human, UniProt O95817 1-575).
The target of assay [5] is T3, thioredoxin-dependent peroxide reductase (mitochondrial) (human, UniProt P30048 62-256).
T3 sequence (looked up): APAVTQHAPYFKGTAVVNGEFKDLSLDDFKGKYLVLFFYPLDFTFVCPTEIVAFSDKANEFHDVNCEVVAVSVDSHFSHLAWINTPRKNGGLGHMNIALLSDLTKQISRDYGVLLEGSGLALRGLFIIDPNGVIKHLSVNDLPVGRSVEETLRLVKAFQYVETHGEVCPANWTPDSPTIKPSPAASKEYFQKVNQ

Assay [6] concerns the target T4, calumenin (human, UniProt O43852 20-315).
T4 sequence (looked up): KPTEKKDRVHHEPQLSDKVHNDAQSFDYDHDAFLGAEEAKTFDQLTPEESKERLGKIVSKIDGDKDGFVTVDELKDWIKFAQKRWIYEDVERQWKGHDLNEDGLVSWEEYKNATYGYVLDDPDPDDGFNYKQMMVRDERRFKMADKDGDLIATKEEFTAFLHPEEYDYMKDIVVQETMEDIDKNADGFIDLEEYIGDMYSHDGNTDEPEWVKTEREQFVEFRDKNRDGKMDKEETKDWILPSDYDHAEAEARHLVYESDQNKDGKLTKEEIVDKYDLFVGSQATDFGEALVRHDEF

The target in assay [7] is T5, CASQ1, human recombinant protein (human, UniProt P31415 35-396).
T5 sequence (looked up): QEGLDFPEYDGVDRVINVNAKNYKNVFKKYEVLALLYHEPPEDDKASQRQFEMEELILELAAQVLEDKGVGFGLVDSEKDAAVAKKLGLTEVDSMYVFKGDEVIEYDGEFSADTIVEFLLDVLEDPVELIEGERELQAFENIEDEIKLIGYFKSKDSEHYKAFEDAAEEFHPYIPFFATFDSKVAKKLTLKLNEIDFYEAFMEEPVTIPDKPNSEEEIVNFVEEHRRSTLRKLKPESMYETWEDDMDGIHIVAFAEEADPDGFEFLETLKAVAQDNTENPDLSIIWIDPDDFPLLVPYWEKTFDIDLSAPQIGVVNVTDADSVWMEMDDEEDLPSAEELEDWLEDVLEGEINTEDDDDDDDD

For assay [8], the target named is lactotransferrin (human, UniProt P02788 20-710).
For assay [9], the target named is T6, complement component 1 Q subcomponent-binding protein (mitochondrial) (human, UniProt Q07021 74-282).
T6 sequence (looked up): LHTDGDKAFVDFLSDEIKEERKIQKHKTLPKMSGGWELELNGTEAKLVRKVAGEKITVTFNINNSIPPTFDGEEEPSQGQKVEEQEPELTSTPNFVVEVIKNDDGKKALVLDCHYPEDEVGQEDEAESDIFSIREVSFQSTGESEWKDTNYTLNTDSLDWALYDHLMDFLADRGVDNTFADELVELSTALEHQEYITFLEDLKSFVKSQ

Assay [10] deals with T7, CRYAB, human recombinant protein (human, UniProt P02511 1-175).
T7 sequence (looked up): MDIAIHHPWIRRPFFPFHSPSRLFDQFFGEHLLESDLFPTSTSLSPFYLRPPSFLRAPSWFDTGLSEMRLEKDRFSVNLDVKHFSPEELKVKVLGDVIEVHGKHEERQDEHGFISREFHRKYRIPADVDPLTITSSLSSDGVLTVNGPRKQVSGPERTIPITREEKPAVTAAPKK

Assay [11] has as its target heat shock cognate 71 kDa protein (human, UniProt P11142 1-646).
The target in assay [12] is peptidyl-prolyl cis-trans isomerase B (human, UniProt P23284 34-216).
Assay [13] addresses desmin (human, UniProt P17661 1-470).
The target of assay [14] is 78 kDa glucose-regulated protein (human, UniProt P11021 19-654).
78 kDa glucose-regulated protein, sequence (P11021 19-654): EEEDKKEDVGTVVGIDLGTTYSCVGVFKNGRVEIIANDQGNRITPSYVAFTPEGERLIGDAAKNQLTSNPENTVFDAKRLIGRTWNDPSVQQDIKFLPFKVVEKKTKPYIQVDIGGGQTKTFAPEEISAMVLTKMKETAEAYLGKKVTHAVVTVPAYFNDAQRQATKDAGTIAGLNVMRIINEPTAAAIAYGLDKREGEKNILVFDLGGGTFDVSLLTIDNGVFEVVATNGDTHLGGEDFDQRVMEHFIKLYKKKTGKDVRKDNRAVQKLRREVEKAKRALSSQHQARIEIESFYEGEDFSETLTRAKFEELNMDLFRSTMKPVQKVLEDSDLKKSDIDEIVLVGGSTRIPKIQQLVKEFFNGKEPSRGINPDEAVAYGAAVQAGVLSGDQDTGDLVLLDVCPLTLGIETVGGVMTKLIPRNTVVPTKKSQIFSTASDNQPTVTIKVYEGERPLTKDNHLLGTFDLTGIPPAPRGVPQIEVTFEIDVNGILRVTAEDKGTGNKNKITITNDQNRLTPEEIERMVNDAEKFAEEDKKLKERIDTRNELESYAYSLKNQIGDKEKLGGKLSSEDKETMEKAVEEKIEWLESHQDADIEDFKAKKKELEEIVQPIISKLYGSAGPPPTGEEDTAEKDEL

lactotransferrin, sequence (P02788 20-710): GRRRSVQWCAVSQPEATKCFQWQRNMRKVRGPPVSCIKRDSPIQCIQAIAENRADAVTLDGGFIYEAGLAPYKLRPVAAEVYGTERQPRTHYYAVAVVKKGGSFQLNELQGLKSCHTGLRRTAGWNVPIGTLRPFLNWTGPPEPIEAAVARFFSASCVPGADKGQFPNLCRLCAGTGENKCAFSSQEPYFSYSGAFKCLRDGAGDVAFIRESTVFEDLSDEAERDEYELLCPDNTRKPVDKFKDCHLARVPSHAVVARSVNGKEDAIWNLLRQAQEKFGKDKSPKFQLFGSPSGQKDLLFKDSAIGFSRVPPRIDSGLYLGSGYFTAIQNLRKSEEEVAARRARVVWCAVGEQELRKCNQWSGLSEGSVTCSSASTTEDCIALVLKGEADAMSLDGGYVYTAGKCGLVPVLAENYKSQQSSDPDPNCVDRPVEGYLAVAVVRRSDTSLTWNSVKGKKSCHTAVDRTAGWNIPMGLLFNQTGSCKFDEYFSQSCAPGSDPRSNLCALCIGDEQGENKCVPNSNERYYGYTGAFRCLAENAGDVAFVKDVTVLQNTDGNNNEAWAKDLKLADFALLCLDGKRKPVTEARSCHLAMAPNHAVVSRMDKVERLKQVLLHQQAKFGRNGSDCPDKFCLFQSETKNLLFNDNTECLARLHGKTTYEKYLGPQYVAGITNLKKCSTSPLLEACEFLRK
heat shock cognate 71 kDa protein, sequence (P11142 whole entry): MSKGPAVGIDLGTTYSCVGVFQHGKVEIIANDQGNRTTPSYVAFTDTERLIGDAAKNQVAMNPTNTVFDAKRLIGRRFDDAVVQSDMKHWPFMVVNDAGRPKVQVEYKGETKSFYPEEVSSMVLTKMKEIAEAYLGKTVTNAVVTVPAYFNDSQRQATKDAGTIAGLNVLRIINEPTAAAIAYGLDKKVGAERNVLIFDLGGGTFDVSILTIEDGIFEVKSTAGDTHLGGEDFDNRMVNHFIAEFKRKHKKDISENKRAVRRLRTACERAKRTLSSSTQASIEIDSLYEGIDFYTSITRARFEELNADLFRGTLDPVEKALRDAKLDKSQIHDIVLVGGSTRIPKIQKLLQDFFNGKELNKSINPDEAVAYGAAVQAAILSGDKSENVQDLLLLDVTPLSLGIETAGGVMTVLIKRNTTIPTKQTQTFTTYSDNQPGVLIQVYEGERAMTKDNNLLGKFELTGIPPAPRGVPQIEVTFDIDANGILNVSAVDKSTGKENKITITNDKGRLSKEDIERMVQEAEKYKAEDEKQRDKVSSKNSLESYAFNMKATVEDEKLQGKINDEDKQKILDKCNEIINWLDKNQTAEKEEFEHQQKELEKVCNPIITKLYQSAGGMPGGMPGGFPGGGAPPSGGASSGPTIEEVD
HSP27, human recombinant protein, sequence (P04792 whole entry): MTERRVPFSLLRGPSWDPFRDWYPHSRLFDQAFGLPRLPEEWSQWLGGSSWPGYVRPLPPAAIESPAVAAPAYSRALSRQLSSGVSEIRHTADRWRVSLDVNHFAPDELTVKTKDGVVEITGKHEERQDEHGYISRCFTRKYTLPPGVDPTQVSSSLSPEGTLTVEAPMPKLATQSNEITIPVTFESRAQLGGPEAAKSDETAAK
BAG family molecular chaperone regulator 3, sequence (O95817 whole entry): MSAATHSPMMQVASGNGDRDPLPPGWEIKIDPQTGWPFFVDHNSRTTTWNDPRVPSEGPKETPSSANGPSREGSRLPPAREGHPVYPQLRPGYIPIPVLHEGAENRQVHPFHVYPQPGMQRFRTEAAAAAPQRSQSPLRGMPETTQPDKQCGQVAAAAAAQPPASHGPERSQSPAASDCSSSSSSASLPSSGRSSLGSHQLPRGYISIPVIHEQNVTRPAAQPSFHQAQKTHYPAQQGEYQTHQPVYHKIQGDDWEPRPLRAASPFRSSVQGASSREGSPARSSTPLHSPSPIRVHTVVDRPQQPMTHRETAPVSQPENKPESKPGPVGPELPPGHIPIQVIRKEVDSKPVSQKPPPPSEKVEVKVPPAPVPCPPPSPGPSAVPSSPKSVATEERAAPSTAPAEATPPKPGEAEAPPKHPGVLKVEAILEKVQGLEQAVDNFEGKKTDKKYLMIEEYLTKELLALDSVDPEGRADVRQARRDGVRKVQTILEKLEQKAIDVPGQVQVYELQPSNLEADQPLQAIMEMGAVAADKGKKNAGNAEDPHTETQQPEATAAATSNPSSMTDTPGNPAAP
peptidyl-prolyl cis-trans isomerase B, sequence (P23284 34-216): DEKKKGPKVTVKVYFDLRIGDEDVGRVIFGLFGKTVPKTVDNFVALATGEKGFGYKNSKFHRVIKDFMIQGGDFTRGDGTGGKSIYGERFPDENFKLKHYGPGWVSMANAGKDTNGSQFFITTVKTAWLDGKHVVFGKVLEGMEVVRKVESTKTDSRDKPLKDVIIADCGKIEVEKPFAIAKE
desmin, sequence (P17661 whole entry): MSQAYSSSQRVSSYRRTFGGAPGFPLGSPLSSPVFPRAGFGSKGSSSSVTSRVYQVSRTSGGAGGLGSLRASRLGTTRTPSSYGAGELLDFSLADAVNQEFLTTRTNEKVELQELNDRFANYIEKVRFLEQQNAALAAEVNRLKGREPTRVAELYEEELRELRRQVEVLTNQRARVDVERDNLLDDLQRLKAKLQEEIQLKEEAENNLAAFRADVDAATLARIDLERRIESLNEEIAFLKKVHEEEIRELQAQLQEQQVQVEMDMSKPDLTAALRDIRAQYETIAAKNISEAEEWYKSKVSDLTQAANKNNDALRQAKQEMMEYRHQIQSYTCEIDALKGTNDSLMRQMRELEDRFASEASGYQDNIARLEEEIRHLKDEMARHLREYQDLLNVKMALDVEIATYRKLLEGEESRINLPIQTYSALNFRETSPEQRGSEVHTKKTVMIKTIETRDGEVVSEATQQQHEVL

B1: CLVSGRSRC-displaying phage (peptide)
peptide: CLVSGRSRC
modifications: disulfide 1-9
As to B1, the binding result in assay [1] is “binds”.

B2: CHKPPNFGSC-displaying phage (peptide)
peptide: CHKPPNFGSC
modifications: disulfide 1-10
In the case of B2, the binding result in [2] was “binds”.

B3: CKWEGLDMAC-displaying phage (peptide)
peptide: CKWEGLDMAC
modifications: disulfide 1-10; also: displayed on phage
Take B3: the binding result in [3] was “binds”.

B4: CEGKEDMQGC-displaying phage (peptide)
peptide: CEGKEDMQGC
modifications: disulfide 1-10
Consider B4, for which the binding result in assay [4] is given as “binds”.

B5: CTESFQKHLC-displaying phage (peptide)
peptide: CTESFQKHLC
modifications: disulfide 1-10
For the molecule B5, in assay [5], the binding result was “binds”.

B6: CPTFFAVPC-displaying phage (peptide)
peptide: CPTFFAVPC
modifications: disulfide 1-9
For B6, the binding result in assay [6] is reported as “binds”.

B7: CLRGFQRVC-displaying phage (peptide)
peptide: CLRGFQRVC
modifications: disulfide 1-9
Regarding B7, the binding result in [7] is listed as “binds”.

B8: CGILGPWMAC-displaying phage (peptide)
peptide: CGILGPWMAC
modifications: disulfide 1-10
For B8, the binding result in [8] is “binds”.

B9: CSRGSPDARC-displaying phage (peptide)
peptide: CSRGSPDARC
modifications: disulfide 1-10
In the case of B9, the binding result in assay [9] is “binds”.

B10: CRPARVRGAC-displaying phage (peptide)
peptide: CRPARVRGAC
modifications: disulfide 1-10
With B10, the binding result in assay [10] was “binds”.

B11: CLNVSGRSC-displaying phage (peptide)
peptide: CLNVSGRSC
modifications: disulfide 1-9
Regarding B11, the binding result in assay [11] is listed as “binds”.

B12: CLRGFPALVC-displaying phage (peptide)
peptide: CLRGFPALVC
modifications: disulfide 1-10
With B12, in assay [7], the binding result is “binds”.

B13: CASAVPISC-displaying phage (peptide)
peptide: CASAVPISC
modifications: disulfide 1-9
For the molecule B13, in assay [12], the binding result was “binds”.

B14: CSRAKGRGAC-displaying phage (peptide)
peptide: CSRAKGRGAC
modifications: disulfide 1-10
In the case of B14, in [13], the binding result is “binds”.

B15: CVLRFFSSC-displaying phage (peptide)
peptide: CVLRFFSSC
modifications: disulfide 1-9
On to B15, for which the binding result in [14] is recorded as “binds”.

B16: CRGFVRGSC-displaying phage (peptide)
peptide: CRGFVRGSC
modifications: disulfide 1-9
With B16, in assay [10], the binding result is recorded as “binds”.

Values taken from publication PMC12955825 (Med (New York, N.Y.), 2025).
